The Kd is the concentration at which binding is half-saturated.

Consider two molecules from US20250197448A1 (UNIVERSITY OF ROCHESTER, published 2025).

Experiment [1] has as its target T1, integrin αvβ3 on the surface of MDA-MB-231 breast cancer cells (human, UniProt P06756 31-1048; P05106 27-788).
T1 construct: whole, on cells; also called integrin receptors on the cells
The experiment in a line: flow cytometry on MDA-MB-231 cells, FITC anti-IgG1 Fc secondary. How it is done: Flow Cytometry Analysis. […] When confluent, media was aspirated, cells were washed once with 1×DPBS (no calcium, no magnesium) (Gibco). Adherent cells were detached from the petri dish with 1 mL of accutase (Gibco) pre-warmed to 37° C., followed by incubated for 5 min at 37° C. Cells were spun down using centrifugation. Supernatant was removed and cells were washed three times with staining buffer (1×PBS with 0.5% BSA). Cells were resuspended in Eppendorf tubes in 100 μL PBS at a concentration of […]. Cyclopeptibodies or Human anti-PD-L1 antibody (1 μg) (R&D Systems, MAB10355) in staining buffer were then added to the tubes with a concentration of 1.5 μM in 200 μL. Eppendorf tubes were then placed on the platform shaker for gently shaking for 1 hour at room temperature. After 1 hour, cells were spun down using centrifugation, then supernatant was removed. After washing three times, cells were resuspended in 200 μL of Fluorescein (FITC) AffiniPure Goat Anti-Human IgG with working concentration of 30 μg/mL (Jackson ImmunoResearch, 109-095-098), incubated in the dark for 30 min at room temperature. […] Then cells were analyzed on a BD FACS Accuri C6⁺ using a filter of 533/30. […]
The cyclopeptibody treated cells were then analyzed by flow cytometry using a procedure similar to that described for the PD-L1-targeting cyclopeptibodies in Example 9.
Background: In flow cytometry, cells or beads pass a laser one at a time.

Experiment [2] has as its target T2, Sonic Hedgehog (Shh) (human, UniProt Q15465 24-197, limits assumed). As to the kind of experiment: plate binding assay with immobilised Shh. How it is done:
After washing (3×150 μL of PBS with 0.05% Tween-20), each well was incubated with 100 μL of purified FLAG-tagged cyclopeptibody at varying concentrations for 1 hour at room temperature. After washing three times with wash buffer, each well was incubated with 100 μL of 1:2500 dilution of HRP-conjugate mouse anti-FLAG polyclonal antibody (Sigma-Aldrich) for 1 hour at room temperature. After washing three times with wash buffer, 100 μL of 2.2 mM o-phenylenediamine dihydrochloride, 4.2 mM urea hydrogen peroxide, 100 mM dibasic sodium phosphate, and 50 mM sodium citrate, pH 5.0, were added to each well, followed by measurement of the absorbance at 450 nm after 10-20 min using a Tecan Infinite 1000 plate reader. Equilibrium dissociation constants (Kp) were determined by fitting the dose-response curves to a 1:1 binding isotherm equation via nonlinear regression. using SigmaPlot. Mean values and standard deviations were calculated from experiments performed in triplicate.
To prepare a Hedgehog-targeting cyclopeptibody, a Shh-binding cyclic peptide previously developed via affinity maturation of a HHIP loop 2 mimic (Owens A E et al., 2017, J. Am. Chem. Soc., 139:12559-12568) was genetically fused to the Fc domain of human IgG1 via a spacer (Entry 5, Table 1). The resulting cyclopeptibody (called L2-m5-Tras-Fc) was expressed, purified, and characterized as described in Example 4. […]

Experiment [3] has as its target T2, Sonic Hedgehog (Shh). The experiment in a line: plate binding assay: immobilised Shh, FLAG-tagged binder titrated, HRP anti-FLAG detection.

Starred links: 1 amine or outer side, 2 acyl side, 3 side chain; linkers in the order of their positions; H or OH if unused. Positions of bridges follow the written chain, without caps; N, C: chain ends. Non-standard residues stand in square brackets, D forms with d. No end group written: not given here. O2beY = O-(2-bromoethyl)-tyrosine (p-2beF), reacts with Cys to form a thioether, O=C([C@H](Cc1ccc(OCCBr)cc1)N[*:1])[*:2]; pCaaF = p-(2-chloroacetamido)-phenylalanine, O=C(CCl)Nc1ccc(C[C@H](N[*:1])C(=O)[*:2])cc1 Bounds are passed on as bounds.

T1 sequence (P06756 31-1048, chain 1 of 2): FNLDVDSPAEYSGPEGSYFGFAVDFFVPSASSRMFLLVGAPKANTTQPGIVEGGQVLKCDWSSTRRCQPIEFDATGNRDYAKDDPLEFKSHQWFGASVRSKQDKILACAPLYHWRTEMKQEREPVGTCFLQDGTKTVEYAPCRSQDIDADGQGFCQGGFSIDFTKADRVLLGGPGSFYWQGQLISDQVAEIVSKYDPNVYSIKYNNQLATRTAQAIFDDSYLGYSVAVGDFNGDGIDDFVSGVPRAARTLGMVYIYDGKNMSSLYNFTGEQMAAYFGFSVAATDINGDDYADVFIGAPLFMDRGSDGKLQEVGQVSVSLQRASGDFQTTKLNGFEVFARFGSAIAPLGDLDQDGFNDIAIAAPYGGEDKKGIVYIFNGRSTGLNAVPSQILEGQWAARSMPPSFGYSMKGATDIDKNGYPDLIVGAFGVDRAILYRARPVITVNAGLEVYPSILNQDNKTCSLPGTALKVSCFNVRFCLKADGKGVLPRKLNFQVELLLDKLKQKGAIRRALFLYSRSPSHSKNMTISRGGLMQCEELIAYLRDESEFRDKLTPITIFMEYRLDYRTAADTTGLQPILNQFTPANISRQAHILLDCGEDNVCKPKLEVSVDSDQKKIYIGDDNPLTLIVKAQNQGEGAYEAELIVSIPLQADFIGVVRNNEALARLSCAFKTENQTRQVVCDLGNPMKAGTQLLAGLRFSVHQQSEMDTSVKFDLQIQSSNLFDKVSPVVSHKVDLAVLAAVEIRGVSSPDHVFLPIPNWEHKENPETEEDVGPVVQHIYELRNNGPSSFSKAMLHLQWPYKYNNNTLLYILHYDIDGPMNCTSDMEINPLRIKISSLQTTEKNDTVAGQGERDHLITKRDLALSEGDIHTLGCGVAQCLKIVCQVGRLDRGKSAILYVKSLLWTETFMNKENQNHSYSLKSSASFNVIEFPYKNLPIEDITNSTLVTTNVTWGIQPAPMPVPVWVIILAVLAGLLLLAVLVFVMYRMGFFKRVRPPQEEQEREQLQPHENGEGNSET
T1 sequence (P05106 27-788, chain 2 of 2): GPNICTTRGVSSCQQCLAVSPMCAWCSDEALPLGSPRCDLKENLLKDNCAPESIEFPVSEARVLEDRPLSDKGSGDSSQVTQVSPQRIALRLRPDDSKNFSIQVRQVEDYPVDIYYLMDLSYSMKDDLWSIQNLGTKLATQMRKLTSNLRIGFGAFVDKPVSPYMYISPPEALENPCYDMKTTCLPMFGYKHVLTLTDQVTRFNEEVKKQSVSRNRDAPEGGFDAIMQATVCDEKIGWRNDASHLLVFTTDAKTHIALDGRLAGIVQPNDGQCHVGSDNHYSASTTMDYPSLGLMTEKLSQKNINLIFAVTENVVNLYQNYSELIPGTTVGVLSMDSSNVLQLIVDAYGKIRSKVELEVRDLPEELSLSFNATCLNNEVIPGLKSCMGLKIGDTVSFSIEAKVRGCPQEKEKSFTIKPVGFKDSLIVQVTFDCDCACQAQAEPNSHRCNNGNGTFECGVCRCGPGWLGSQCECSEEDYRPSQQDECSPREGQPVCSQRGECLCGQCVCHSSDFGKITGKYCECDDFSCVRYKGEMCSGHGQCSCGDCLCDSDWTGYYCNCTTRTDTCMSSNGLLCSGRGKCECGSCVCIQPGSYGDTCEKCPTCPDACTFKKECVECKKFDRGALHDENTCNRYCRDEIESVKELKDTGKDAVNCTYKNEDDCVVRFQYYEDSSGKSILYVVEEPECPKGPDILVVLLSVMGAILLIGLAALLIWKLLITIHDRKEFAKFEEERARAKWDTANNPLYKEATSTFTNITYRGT

B1: RGD5R (pCaaF)-Tras-Fc (Fc fusion)
chain: DYKDDDDKGSGSCRDRGDY[pCaaF]QQQQQQIEGR-{Fc-H6}
modifications: thioether 13-20; also: dimeric through the Fc
notes: Integrin-targeting cyclopeptibody; dimeric through the human IgG1 Fc; also called cRGD5R (pCaaF)-Tras-Fc
Take B1: in experiment [1], the binding result was “binds”.

B2: L2-m5-Tras-Fc (Fc fusion)
chain: DYKDDDDKGSGSTLSW[O2beY]EAMDMCTSSQQQQQQ-{Fc-H6}
modifications: thioether 17-23; also: dimeric through the Fc
notes: Cyclic peptide fused through a (Gln)6 spacer to human IgG1 Fc; dimeric through the Fc; made in E. coli; also called FLAG-(GS)2-TLSWZEAMDMCTSS-(Q)6-(Fc)^1-H6
For B2, the “fold improved affinity against the same cyclic peptide fused to CBD” value with Sonic Hedgehog (Shh) [2] was above 55 fold. The molecule also came in with a Kd in the experiment with Sonic Hedgehog (Shh) [3] of 7 nM.
